Laboratory results published in paper PMC13627713.

Molecular target: Smc5/6 hexamer (wild type) (Saccharomyces cerevisiae W303, UniProt Q08204;Q12749;Q07913;P38632;Q05541;P43124 1-1093;1-1114;1-336;1-267;1-303;1-402)
Assay: EMSA

B1: DB20 20-bp DNA (dsDNA)
DNA 1: TATTTACTTTATGTTCATTT
DNA 2: AAATGAACATAAAGTAAATA
- binding result: binds
